The supplement of paper PMC10724198
± gives the standard deviation of the averaged measurements.

Experiments:
Saccharomyces cerevisiae [1] = test: protein stability index of tFT-peptide fusion (C-terminal peptide) (PSI (0-1 scale)); higher = more stable (slower turnover)
Experimental: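 MPS profiling in S. cerevisiae of the tFT-X12 degron library: putative degron peptides plus stable controls, 12 aa, fused to the C-terminus of a sfGFP-mCherry timer. Cells are FACS-sorted into 8 mCherry/sfGFP bins and deep-sequenced. PSI runs from 0 (unstable) to 1 (stable). Backgrounds are wild type, das1Δ and doa10Δ at 30 °C, and wild type, das1Δ, cdc34-1 and cdc53-1 at 37 °C; 2-3 technical replicates each.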

Saccharomyces cerevisiae [2] = test: as above; settings: genetic background: wild type; temperature: 30 C
[3] = genetic background: cdc34-1, temperature: 37 C
[4] = genetic background: cdc53-1, temperature: 37 C
[5] = genetic background: das1 deletion, temperature: 30 C
[6] = genetic background: das1 deletion, temperature: 37 C
[7] = genetic background: doa10 deletion, temperature: 30 C
[8] = genetic background: wild type, temperature: 30 C
[9] = genetic background: wild type, temperature: 37 C
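Note: PSI is a weighted mean of sequencing reads over stability bins, variants kept only with over 10 reads, mCherry proximal and sfGFP distal, peptide attached via GGGS linker.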

| Sequence | protein stability index (Saccharomyces cerevisiae [1]; [3]) | protein stability index (Saccharomyces cerevisiae [1]; [4]) | protein stability index (Saccharomyces cerevisiae [1]; [5]) | protein stability index (Saccharomyces cerevisiae [1]; [6]) | protein stability index (Saccharomyces cerevisiae [1]; [7]) | protein stability index (Saccharomyces cerevisiae [1]; [8]) | protein stability index (Saccharomyces cerevisiae [1]; [9]) | protein stability index (Saccharomyces cerevisiae [2]) |
| --- | --- | --- | --- | --- | --- | --- | --- | --- |
| KAEKNSKKTSTE | 0.685 ± 0.073 | 0.721 ± 0.013 | 0.658 ± 0.064 | 0.68229 ± 0.0003 | 0.633 ± 0.031 | 0.649 ± 0.033 | 0.702 ± 0.021 | 0.698 ± 0.044 |
| KALSSSYFGTRL | 0.69 ± 0.025 | 0.745 ± 0.015 | 0.648 ± 0.014 | 0.743 ± 0.0082 | 0.649 ± 0.019 | 0.6755 ± 0.0058 | 0.7128 ± 0.007 | 0.735 ± 0.062 |
| KCEKGLYCCIAF | 0.608 ± 0.055 | 0.68 ± 0.036 | 0.518 ± 0.031 | 0.664 ± 0.0099 | 0.516 ± 0.025 | 0.534 ± 0.027 | 0.626 ± 0.018 | 0.504 ± 0.073 |
| KEKGVTKIRISS | 0.6166 ± 0.0019 | 0.6861 ± 0.0021 | 0.632 ± 0.024 | 0.7071 ± 0.0024 | 0.1724 ± 0.00028 | 0.195 ± 0.037 | 0.377 ± 0.024 | 0.295 ± 0.0055 |
| KEKKKTKHNKIG | 0.587 ± 0.059 | 0.7521 ± 0.0072 | 0.631 ± 0.014 | 0.742 ± 0.011 | 0.184 ± 0.029 | 0.155 ± 0.032 | 0.314 ± 0.02 | 0.216 ± 0.038 |
| KIVNNTKKNKCH | 0.638 ± 0.048 | 0.684 ± 0.0087 | 0.652 ± 0.039 | 0.738 ± 0.012 | 0.153 ± 0.021 | 0.195 ± 0.046 | 0.26 ± 0.058 | 0.226 ± 0.025 |
| KLALVYLLIRGL | 0.423 ± 0.015 | 0.496 ± 0.028 | 0.366 ± 0.031 | 0.5681 ± 0.00085 | 0.0641 ± 0.01 | 0.0862 ± 0.02 | 0.0975 ± 0.0076 | 0.125 ± 0.06 |
| KLLGVLFVLFPG | 0.486 ± 0.012 | 0.599 ± 0.034 | 0.367 ± 0.031 | 0.569 ± 0.01 | 0.324 ± 0.0068 | 0.336 ± 0.026 | 0.527 ± 0.018 | 0.443 ± 0.017 |
| KLRIVYAKVVCS | 0.547 ± 0.044 | 0.592 ± 0.025 | 0.511 ± 0.029 | 0.613 ± 0.0069 | 0.247 ± 0.019 | 0.274 ± 0.015 | 0.407 ± 0.067 | 0.348 ± 0.055 |
| KSEKTYTYQVIQ | 0.682 ± 0.022 | 0.749 ± 0.027 | 0.622 ± 0.023 | 0.7159 ± 0.0055 | 0.329 ± 0.031 | 0.37 ± 0.027 | 0.5757 ± 0.005 | 0.453 ± 0.0059 |
| KVALWRRGVLAA | 0.363 ± 0.028 | 0.387 ± 0.013 | 0.257 ± 0.037 | 0.476 ± 0.011 | 0.142 ± 0.0064 | 0.161 ± 0.02 | 0.286 ± 0.0099 | 0.231 ± 0.007 |
| LCGYVGVVVCLV | 0.282 ± 0.012 | 0.307 ± 0.027 | 0.243 ± 0.029 | 0.433 ± 0.0061 | 0.175 ± 0.0034 | 0.209 ± 0.021 | 0.352 ± 0.015 | 0.307 ± 0.019 |
| LCIRHFRLLELL | 0.5607 ± 0.0046 | 0.72 ± 0.014 | 0.642 ± 0.033 | 0.728 ± 0.041 | 0.165 ± 0.011 | 0.167 ± 0.016 | 0.268 ± 0.021 | 0.276 ± 0.0069 |
| LCSYSTIPLRLY | 0.619 ± 0.034 | 0.726 ± 0.013 | 0.614 ± 0.019 | 0.695 ± 0.022 | 0.188 ± 0.0019 | 0.231 ± 0.021 | 0.48 ± 0.013 | 0.329 ± 0.035 |
| LCWASLLIVYLP | 0.397 ± 0.014 | 0.4614 ± 0.0036 | 0.311 ± 0.03 | 0.50382 ± 0.0004 | 0.27 ± 0.017 | 0.278 ± 0.032 | 0.463 ± 0.0039 | 0.392 ± 0.011 |
| LEYCLATYLSAC | 0.3382 ± 0.00047 | 0.435 ± 0.013 | 0.25 ± 0.035 | 0.43854 ± 0.00041 | 0.211 ± 0.0025 | 0.248 ± 0.016 | 0.4386 ± 0.00068 | 0.378 ± 0.0073 |
| LFFSFLFLATRC | 0.248 ± 0.012 | 0.209 ± 0.018 | 0.254 ± 0.045 | 0.39184 ± 0.00039 | 0.2246 ± 0.00043 | 0.193 ± 0.019 | 0.311 ± 0.016 | 0.236 ± 0.037 |
| LFFVCSGVVFSF | 0.514 ± 0.052 | 0.5482 ± 0.0011 | 0.407 ± 0.03 | 0.5829 ± 0.0055 | 0.38 ± 0.01 | 0.384 ± 0.031 | 0.558 ± 0.011 | 0.507 ± 0.04 |
| LFGFLCVVMCCG | 0.533 ± 0.014 | 0.521 ± 0.0067 | 0.44 ± 0.02 | 0.511 ± 0.03 | 0.412 ± 0.023 | 0.4422 ± 0.00067 | 0.485 ± 0.034 | 0.434 ± 0.028 |
| LFLFFFLPPLLF | 0.4247 ± 0.0027 | 0.407 ± 0.0056 | 0.373 ± 0.025 | 0.484 ± 0.021 | 0.439 ± 0.018 | 0.366 ± 0.009 | 0.461 ± 0.026 | 0.446 ± 0.028 |

| Sequence | protein stability index (Saccharomyces cerevisiae [1]; [3]) | protein stability index (Saccharomyces cerevisiae [1]; [4]) | protein stability index (Saccharomyces cerevisiae [1]; [5]) | protein stability index (Saccharomyces cerevisiae [1]; [6]) | protein stability index (Saccharomyces cerevisiae [1]; [7]) | protein stability index (Saccharomyces cerevisiae [1]; [8]) | protein stability index (Saccharomyces cerevisiae [1]; [9]) | protein stability index (Saccharomyces cerevisiae [2]) |
| --- | --- | --- | --- | --- | --- | --- | --- | --- |
| LFLSFLLLYFRP | 0.269 ± 0.019 | 0.219 ± 0.022 | 0.311 ± 0.037 | 0.4223 ± 0.0015 | 0.439 ± 0.021 | 0.313 ± 0.015 | 0.402 ± 0.0086 | 0.351 ± 0.039 |
| LFMRGEDEMFSV | 0.722 ± 0.052 | 0.758 ± 0.024 | 0.658 ± 0.01 | 0.7826 ± 0.0013 | 0.668 ± 0.012 | 0.672 ± 0.022 | 0.766 ± 0.036 | 0.746 ± 0.018 |
| LFPLFTLIFVHL | 0.224 ± 0.016 | 0.212 ± 0.017 | 0.265 ± 0.023 | 0.4169 ± 0.0011 | 0.119 ± 0.025 | 0.115 ± 0.019 | 0.1696 ± 0.00078 | 0.1989 ± 0.00028 |
| LFTRSIRNLKSL | 0.653 ± 0.057 | 0.7269 ± 0.007 | 0.664 ± 0.0086 | 0.738 ± 0.02 | 0.303 ± 0.0033 | 0.291 ± 0.0074 | 0.4521 ± 0.0027 | 0.452 ± 0.033 |
| LFVFVISSSSFP | 0.442 ± 0.0068 | 0.539 ± 0.035 | 0.321 ± 0.025 | 0.553 ± 0.0059 | 0.291 ± 0.022 | 0.306 ± 0.025 | 0.503 ± 0.015 | 0.395 ± 0.04 |
| LFWCCVGLSVWR | 0.367 ± 0.063 | 0.474 ± 0.026 | 0.318 ± 0.022 | 0.5026 ± 0.0031 | 0.278 ± 0.0092 | 0.31 ± 0.016 | 0.494 ± 0.023 | 0.43 ± 0.011 |
| LFWPPCYLFFCL | 0.446 ± 0.034 | 0.508 ± 0.052 | 0.473 ± 0.039 | 0.677 ± 0.045 | 0.393 ± 0.03 | 0.324 ± 0.027 | 0.437 ± 0.024 | 0.389 ± 0.031 |
| LFWTLSKYLIIC | 0.284 ± 0.015 | 0.42 ± 0.024 | 0.34 ± 0.04 | 0.491 ± 0.011 | 0.0759 ± 0.0053 | 0.108 ± 0.013 | 0.159 ± 0.083 | 0.135 ± 0.079 |
| LGFFIFSFLILK | 0.0638 ± 0.017 | 0.0569 ± 0.025 | 0.189 ± 0.031 | 0.235 ± 0.011 | 0.263 ± 0.017 | 0.124 ± 0.036 | 0.221 ± 0.057 | 0.25 ± 0.015 |
| LGFHFFFTLIFF | 0.284 ± 0.054 | 0.274 ± 0.0087 | 0.279 ± 0.04 | 0.4 ± 0.031 | 0.4518 ± 0.0032 | 0.305 ± 0.039 | 0.37 ± 0.042 | 0.381 ± 0.03 |
| LGLLIFQWARVL | 0.302 ± 0.015 | 0.5 ± 0.0084 | 0.405 ± 0.026 | 0.553 ± 0.0056 | 0.0666 ± 0.012 | 0.0808 ± 0.016 | 0.092 ± 0.0037 | 0.12 ± 0.035 |
| LGVVVGGVRGVG | 0.43 ± 0.04 | 0.49 ± 0.0086 | 0.461 ± 0.012 | 0.505 ± 0.0054 | 0.467 ± 0.012 | 0.46 ± 0.025 | 0.4913 ± 0.0033 | 0.448 ± 0.045 |
| LHRLRFTLVQVS | 0.171 ± 0.0037 | 0.196 ± 0.036 | 0.228 ± 0.032 | 0.32664 ± 0.00013 | 0.127 ± 0.018 | 0.163 ± 0.021 | 0.2 ± 0.0028 | 0.223 ± 0.022 |
| LIAPSACNLFLF | 0.639 ± 0.04 | 0.7535 ± 0.0061 | 0.682 ± 0.015 | 0.7584 ± 0.0066 | 0.288 ± 0.0042 | 0.308 ± 0.018 | 0.5569 ± 0.005 | 0.412 ± 0.032 |
| LIRDLLYMAVLV | 0.249 ± 0.015 | 0.258 ± 0.016 | 0.295 ± 0.019 | 0.357 ± 0.018 | 0.32 ± 0.0083 | 0.281 ± 0.039 | 0.329 ± 0.0044 | 0.38 ± 0.019 |
| LISRLVLVFVIP | 0.3804 ± 0.00059 | 0.443 ± 0.012 | 0.287 ± 0.032 | 0.529 ± 0.0056 | 0.284 ± 0.021 | 0.272 ± 0.026 | 0.4696 ± 0.0045 | 0.38 ± 0.011 |
| LIVCVKAITIVS | 0.0266 ± 0.0046 | 0.0452 ± 0.011 | 0.0357 ± 0.0096 | 0.0917 ± 0.019 | 0.0226 ± 0.0029 | 0.0194 ± 0.0031 | 0.0521 ± 0.031 | 0.0363 ± 0.015 |
| LKCFLVLTFWFS | 0.187 ± 0.045 | 0.231 ± 0.012 | 0.222 ± 0.028 | 0.367 ± 0.018 | 0.184 ± 0.021 | 0.194 ± 0.027 | 0.3 ± 0.0095 | 0.263 ± 0.0049 |
| LLHFVLYFLSCT | 0.51 ± 0.057 | 0.548 ± 0.0012 | 0.442 ± 0.03 | 0.5554 ± 0.0051 | 0.42 ± 0.03 | 0.434 ± 0.01 | 0.549 ± 0.012 | 0.456 ± 0.018 |
